Patent US6699677 (CHEMOCENTRYX, dated 2004)

Key:
[1] = target: T1, CCR7 on transfected mouse myeloma NSO cells (UniProt P32248 25-378, limits assumed); assay: adhesion of receptor-expressing NSO cells to immobilized stalkokine
T1 construct: whole, on cells; also called CCR7-NSO
T1 sequence (looked up): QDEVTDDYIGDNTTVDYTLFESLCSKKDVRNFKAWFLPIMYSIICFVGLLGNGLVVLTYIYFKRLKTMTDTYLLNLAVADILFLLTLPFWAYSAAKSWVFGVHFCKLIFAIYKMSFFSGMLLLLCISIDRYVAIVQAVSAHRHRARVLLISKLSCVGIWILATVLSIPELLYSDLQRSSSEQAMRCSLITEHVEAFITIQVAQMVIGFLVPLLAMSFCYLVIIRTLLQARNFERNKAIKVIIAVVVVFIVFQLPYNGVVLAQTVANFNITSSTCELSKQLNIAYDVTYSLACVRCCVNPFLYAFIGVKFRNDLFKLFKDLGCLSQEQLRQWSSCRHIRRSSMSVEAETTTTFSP

[2] = target: T2, human CCR10 (CCX CKR) with N-terminal FLAG epitope, stably expressed on HEK293 cells (human, UniProt Q9NPB9 1-350); assay: adhesion of HEK293-CCR10 cells to stalkokine immobilized via anti-His antibody on chamber slides
T2 construct: also called HEK293-CCR10 cells; CCR10-expressing cells
T2 sequence: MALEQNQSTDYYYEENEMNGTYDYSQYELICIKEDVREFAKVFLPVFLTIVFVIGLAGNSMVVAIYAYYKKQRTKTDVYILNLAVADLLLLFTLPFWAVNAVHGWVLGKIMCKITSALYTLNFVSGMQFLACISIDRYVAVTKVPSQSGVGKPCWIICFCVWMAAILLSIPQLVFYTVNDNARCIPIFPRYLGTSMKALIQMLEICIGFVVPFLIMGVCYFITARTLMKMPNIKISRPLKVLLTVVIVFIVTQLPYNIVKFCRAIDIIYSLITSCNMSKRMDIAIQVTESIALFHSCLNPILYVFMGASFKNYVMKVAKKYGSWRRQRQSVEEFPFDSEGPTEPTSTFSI

[3] = target: T2, human CCR10 (CCX CKR) with N-terminal …; assay: summary of Example 1; assay for this ligand not described
[4] = target: T3, CCR4 on transfected mouse myeloma NSO cells (UniProt P51679 1-360, limits assumed); assay: adhesion of receptor-expressing NSO cells to immobilized stalkokine
T3 construct: whole, on cells; also called CCR4-NSO; CCR4 NSO cells
T3 sequence (looked up): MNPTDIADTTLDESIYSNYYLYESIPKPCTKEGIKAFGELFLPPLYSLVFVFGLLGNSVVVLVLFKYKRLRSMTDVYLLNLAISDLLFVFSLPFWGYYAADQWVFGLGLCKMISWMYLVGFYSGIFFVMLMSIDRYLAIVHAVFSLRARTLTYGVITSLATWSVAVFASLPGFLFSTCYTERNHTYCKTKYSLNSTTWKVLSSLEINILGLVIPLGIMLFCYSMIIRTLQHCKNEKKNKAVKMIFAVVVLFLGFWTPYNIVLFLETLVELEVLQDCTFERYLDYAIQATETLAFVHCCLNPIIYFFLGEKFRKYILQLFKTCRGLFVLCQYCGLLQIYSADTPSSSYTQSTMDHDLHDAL

[5] = target: T4, CCR4 on CEM cells (UniProt P51679 1-360, limits assumed); assay: displacement of radiolabeled MDC or TARC from CEM cells expressing CCR4 by stalkokine supernatant
T4 construct: whole, on cells; also called CEM cells expressing CCR4; CEM cells that express CCR4
T4 sequence (looked up): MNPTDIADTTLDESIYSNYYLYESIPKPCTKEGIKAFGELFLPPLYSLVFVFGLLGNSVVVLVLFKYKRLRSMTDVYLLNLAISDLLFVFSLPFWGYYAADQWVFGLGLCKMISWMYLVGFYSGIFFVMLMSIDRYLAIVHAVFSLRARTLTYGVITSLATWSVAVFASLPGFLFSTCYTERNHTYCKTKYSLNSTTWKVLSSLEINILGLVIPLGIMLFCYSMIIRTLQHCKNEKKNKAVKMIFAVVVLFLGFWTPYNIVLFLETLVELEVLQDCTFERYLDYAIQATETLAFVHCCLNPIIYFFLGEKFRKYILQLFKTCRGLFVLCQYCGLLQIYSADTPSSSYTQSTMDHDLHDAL

[6] = target: T4, CCR4 on CEM cells; assay: displacement of radiolabeled MDC or TARC from CEM cells expressing CCR4 by soluble MDC
[7] = target: T3, CCR4 on transfected mouse myeloma NSO …; assay: preincubation of CCR4-NSO cells with 10 ug/ml soluble chemokine, then adhesion to immobilized MDC-FRAC or TARC-FRAC
[8] = target: T5, CCR1 on transfected mouse myeloma NSO cells (UniProt P32246 1-355, limits assumed); assay: adhesion of receptor-expressing NSO cells to immobilized stalkokine
T5 construct: whole, on cells; also called CCR1-NSO
T5 sequence (looked up): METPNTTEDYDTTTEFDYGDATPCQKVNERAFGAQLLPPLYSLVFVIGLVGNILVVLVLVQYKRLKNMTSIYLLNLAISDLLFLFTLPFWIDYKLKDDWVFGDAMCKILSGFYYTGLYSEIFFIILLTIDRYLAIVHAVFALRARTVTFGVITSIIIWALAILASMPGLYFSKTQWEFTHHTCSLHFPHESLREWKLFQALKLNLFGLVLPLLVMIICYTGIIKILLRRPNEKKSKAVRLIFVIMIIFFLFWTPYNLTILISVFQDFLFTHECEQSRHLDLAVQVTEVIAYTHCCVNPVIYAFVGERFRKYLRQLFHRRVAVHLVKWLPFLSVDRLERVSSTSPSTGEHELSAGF

[9] = target: T6, CCR8 on transfected mouse myeloma NSO cells (UniProt P51685 1-355, limits assumed); assay: as above
T6 construct: whole, on cells; also called CCR8-NSO

[10] = target: T2, human CCR10 (CCX CKR) with N-terminal …; assay: homologous competition, radiolabeled ELC with increasing unlabeled ELC on cells
[11] = target: T2, human CCR10 (CCX CKR) with N-terminal …; assay: homologous competition, radiolabeled TECK with cold TECK on cells

T6 sequence (P51685 whole entry): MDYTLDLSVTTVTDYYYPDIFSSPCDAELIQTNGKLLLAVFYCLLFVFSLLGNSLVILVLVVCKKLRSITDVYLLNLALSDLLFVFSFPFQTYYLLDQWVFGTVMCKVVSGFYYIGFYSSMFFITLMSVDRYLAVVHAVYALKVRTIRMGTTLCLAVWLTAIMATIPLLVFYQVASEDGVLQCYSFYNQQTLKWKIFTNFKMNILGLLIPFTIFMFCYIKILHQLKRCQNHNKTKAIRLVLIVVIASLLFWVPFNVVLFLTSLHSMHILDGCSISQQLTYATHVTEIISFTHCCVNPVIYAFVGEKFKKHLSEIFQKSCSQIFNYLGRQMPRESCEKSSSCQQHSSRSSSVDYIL

B1: ELC-stalkokine (ELC ligand domain, human fractalkine mucin stalk, myc epitope and poly-histidine) (ligand, not shown: small tags and cut ends)
chain: GTNDAEDCCLSVTQKPIPGYIVRNFHYLLIKDGCRVPAVVFTTLRGRQLCAPPDQPWVERIIQRLQRTSAKMKRRSSEFGGTFEKQIGEVKPRTTPAAGGMDESVVLEPEATGESSSLEPTPSSQEAQRALGTSPELPTGVTGSSGTRLPPTPKAQDGGPVGTELFRVPPVSTAATWQSSAPHQPGPSLWAEAKTSEAPSTQDPSTQASTASSPAPEENAPSEGQRVWGQGQSPRPENSLEREEMGPVPAHTDAFQDWGPGSMAHVSVVPVSSEGTPSREPVASGSWTPKAEEPIHATMDPQRLGVLITPVPDAQA
notes: mature; also called ELC-SK; ELC-FRAC
binding result [1]: binds
binding result [2]: binds

B2: vMIPII (ligand)
chain: GDTLGASWHRPDKCCLGYQKRPLPQVLLSSWYPTSQLCSKPGVIFLTKRGRQVCADKSKDWVKKLMQQLPVTAR
binding result [3]: binds

B3: MDC-FRAC (stalkokine with a fractalkine stalk and an MDC ligand domain) (ligand, human, not shown: small tags and cut ends)
chain: GPYGANMEDSVCCRDYVRYRLPLRVVKHFYWTSDSCPRPGVVLLTFRDKEICADPRVPWVKMILNKLSQEFGGTFEKQIGEVKPRTTPAAGGMDESVVLEPEATGESSSLEPTPSSQEAQRALGTSPELPTGVTGSSGTRLPPTPKAQDGGPVGTELFRVPPVSTAATWQSSAPHQPGPSLWAEAKTSEAPSTQDPSTQASTASSPAPEENAPSEGQRVWGQGQSPRPENSLEREEMGPVPAHTDAFQDWGPGSMAHVSVVPVSSEGTPSREPVASGSWTPKAEEPIHATMDPQRLGVLITPVPDAQA
notes: mature; Used as cell supernatant, soluble (displacement, calcium flux) or immobilized through anti-His antibody (adhesion); also called MDC-SK; MDC-Stalkokine
binding result [4]: binds
binding result [5]: binds

B4: TARC-FRAC (stalkokine with a fractalkine stalk and a TARC ligand domain) (ligand, human, not shown: small tags and cut ends)
chain: ARGTNVGRECCLEYFKGAIPLRKLKTWYQTSEDCSRDAIVFVTVQGRAICSDPNNKRVKNAVKYLQSLERSEFGGTFEKQIGEVKPRTTPAAGGMDESVVLEPEATGESSSLEPTPSSQEAQRALGTSPELPTGVTGSSGTRLPPTPKAQDGGPVGTELFRVPPVSTAATWQSSAPHQPGPSLWAEAKTSEAPSTQDPSTQASTASSPAPEENAPSEGQRVWGQGQSPRPENSLEREEMGPVPAHTDAFQDWGPGSMAHVSVVPVSSEGTPSREPVASGSWTPKAEEPIHATMDPQRLGVLITPVPDAQA
notes: mature; Used as cell supernatant, soluble (displacement, calcium flux) or immobilized through anti-His antibody (adhesion); also called TARC-SK; TARC-Stalkokine
binding result [4]: binds
binding result [5]: binds

B5: MDC, soluble chemokine (ligand, human, UniProt O00626 25-93, looked up)
chain: GPYGANMEDSVCCRDYVRYRLPLRVVKHFYWTSDSCPRPGVVLLTFRDKEICADPRVPWVKMILNKLSQ
notes: Also used radiolabeled as tracer on CEM cells; also called MDC-CK; soluble MDC
binding result [6]: binds
binding result [7]: binds

B6: MCP3-FRAC (MCP3 stalkokine) (ligand)
chain: not shown
notes: mature; also called MCP3 (stalkokine form); MCP3 tethered ligand; not shown: polylinker residues
binding result [8]: binds

B7: I309-FRAC (I309 stalkokine) (ligand, human, not shown: small tags and cut ends)
chain: KSMQVPFSRCCFSFAEQEIPLRAILCYRNTSSICSNEGLIFKLKRGKEACALDTVGWVQRHRKMLRHCPSKRKEFGGTFEKQIGEVKPRTTPAAGGMDESVVLEPEATGESSSLEPTPSSQEAQRALGTSPELPTGVTGSSGTRLPPTPKAQDGGPVGTELFRVPPVSTAATWQSSAPHQPGPSLWAEAKTSEAPSTQDPSTQASTASSPAPEENAPSEGQRVWGQGQSPRPENSLEREEMGPVPAHTDAFQDWGPGSMAHVSVVPVSSEGTPSREPVASGSWTPKAEEPIHATMDPQRLGVLITPVPDAQA
notes: mature; also called I309 (stalkokine form); 1309-FRAC
binding result [9]: binds

B8: TARC, soluble chemokine (ligand, human, UniProt Q92583 24-94, looked up)
chain: ARGTNVGRECCLEYFKGAIPLRKLKTWYQTSEDCSRDAIVFVTVQGRAICSDPNNKRVKNAVKYLQSLERS
notes: Also used radiolabeled as tracer on CEM cells; also called soluble TARC; radiolabeled TARC
binding result [7]: binds

B9: ELC, soluble recombinant native form chemokine (ligand, UniProt Q99731 22-98, looked up)
chain: GTNDAEDCCLSVTQKPIPGYIVRNFHYLLIKDGCRVPAVVFTTLRGRQLCAPPDQPWVERIIQRLQRTSAKMKRRSS
notes: mature; also called soluble ELC; soluble native ELC
binding result [10]: binds

B10: TECK, soluble recombinant native form chemokine (ligand, UniProt O15444 24-150, looked up)
chain: QGVFEDCCLAYHYPIGWAVLRRAWTYRIQEVSGSCNLPAAIFYLPKRHRKVCGNPKSREVQRAMKLLDARNKVFAKLHHNTQTFQAGPHAVKKLSSGNSKLSSSKFSNPISSSKRNVSLLISANSGL
notes: mature; Tracer was 125I-labeled TECK from Amersham; also called soluble TECK; cold TECK
binding result [11]: binds

B11: SLC-FRAC (SLC stalkokine) (ligand, human, not shown: small tags and cut ends)
chain: SDGGAQDCCLKYSQRKIPAKVVRSYRKQEPSLGCSIPAILFLPRKRSQAELCADPKELWVQQLMQHLDKTPSPQKPAQGCRKDRGASKTGKKGKGSKGCKRTERSQTPKGPEFGGTFEKQIGEVKPRTTPAAGGMDESVVLEPEATGESSSLEPTPSSQEAQRALGTSPELPTGVTGSSGTRLPPTPKAQDGGPVGTELFRVPPVSTAATWQSSAPHQPGPSLWAEAKTSEAPSTQDPSTQASTASSPAPEENAPSEGQRVWGQGQSPRPENSLEREEMGPVPAHTDAFQDWGPGSMAHVSVVPVSSEGTPSREPVASGSWTPKAEEPIHATMDPQRLGVLITPVPDAQA
notes: mature; also called SLC (stalkokine form); 6Ckine
binding result [1]: no binding
